One block for each substance: values may come before it.
Columns and labels:
[1] = target: Trastuzumab light chain Q38R_Q124R_Q160K_T178R; assay: SMCA: H1, H2, L1, L2 co-expressed in CHO-3E7, protein A purified, LC-MS; competing light chain m16
[2] = target: D3H44 light chain Q124E_L135W_Q160E_T180E; assay: SMCA, LC-MS of 4 co-expressed chains; competing light chain m28
[3] = target: D3H44 light chain Q124E_Q160E_T180E; assay: SMCA, LC-MS of 4 co-expressed chains; competing light chain m31
[4] = target: D3H44 light chain Q124E_Q160E_T180E; assay: SMCA, LC-MS of 4 co-expressed chains; competing light chain m48
[5] = target: D3H44 light chain Q124E_L135W_Q160E_T180E; assay: SMCA, LC-MS; change vs wild-type bispecific; competing light chain m28
[6] = target: D3H44 light chain Q124E_Q160E_T180E; assay: SMCA, LC-MS; change vs wild-type bispecific; competing light chain m31
[7] = target: D3H44 light chain Q124E_Q160E_T180E; assay: SMCA, LC-MS; change vs wild-type bispecific; competing light chain m48
[8] = target: D3H44 light chain Q124E_L135W_Q160E_T180E; assay: SMCA: H1, H2, L1, L2 co-expressed in CHO-3E7, protein A, LC-MS; competitor light chain m32
[9] = target: D3H44 light chain Q124E_Q160E_T180E; assay: SMCA: H1, H2, L1, L2 co-expressed in CHO-3E7, protein A, LC-MS; competitor light chain m37
[10] = target: Cetuximab light chain Q124E_L135W_Q160E_T180E; assay: SMCA, LC-MS; change vs wild-type bispecific; competing light chain m12
[11] = target: Cetuximab light chain Q124E_Q160E_T180E; assay: SMCA, LC-MS; change vs wild-type bispecific; competing light chain m15
[12] = target: tissue factor (TF) antigen (UniProt P13726); assay: SPR (ProteOn), Fab captured via anti-penta-His, TF injected, 1:1 fit
[13] = target: tissue factor (TF) antigen (UniProt P13726); assay: SPR (ProteOn), Fab captured via anti-penta-His, TF injected, 1:1 fit; reference wild-type D3H44 Fab
[14] = target: tissue factor (TF) antigen (UniProt P13726); assay: SPR (ProteOn), Fab captured via anti-penta-His, TF injected, 1:1 fit; estimated (*) from a Fab differing only in L chain tag
[15] = target: tissue factor (TF) antigen (UniProt P13726); assay: SPR (ProteOn), Fab captured via anti-penta-His, TF injected, 1:1 fit; reference wild-type D3H44 Fab; estimated (*) from a Fab differing only in L chain tag
[16] = target: Cetuximab light chain F116C_Q124R_T178R; assay: SMCA, LC-MS; change vs wild-type bispecific; competing light chain m14
[17] = target: Cetuximab light chain F116C_Q124R_T178R; assay: SMCA: H1, H2, L1, L2 co-expressed in CHO-3E7, protein A purified, LC-MS; competing light chain m6; against wild-type bispecific
[18] = target: D3H44 light chain Q38R_Q124R_Q160K_T178R; assay: SMCA: 2 heavy + 2 light chains co-expressed, protein A, LC-MS; competing light chain m20
[19] = target: D3H44 light chain Q38R_Q124R_Q160K_T178R; assay: SMCA: H1, H2, L1, L2 co-expressed in CHO-3E7, protein A purified, LC-MS; competing light chain m16
[20] = target: D3H44 light chain Q38R_Q124R_Q160K_T178R; assay: SMCA: H1, H2, L1, L2 co-expressed in CHO-3E7, protein A purified, LC-MS; competing light chain m18
[21] = target: D3H44 light chain Q38R_Q124R_Q160K_T178R; assay: SMCA: H1, H2, L1, L2 co-expressed in CHO-3E7, protein A purified, LC-MS; competing light chain m16; against wild-type bispecific
[22] = target: D3H44 light chain Q38R_Q124R_Q160K_T178R; assay: SMCA: H1, H2, L1, L2 co-expressed in CHO-3E7, protein A purified, LC-MS; competing light chain m18; against wild-type bispecific
[23] = target: D3H44 light chain Q38E_Q124E_Q160E_T180E; assay: SMCA: H1, H2, L1, L2 co-expressed in CHO-3E7, protein A, LC-MS; competitor light chain m47
[24] = target: D3H44 light chain Q38E_Q124E_Q160E_T180E; assay: SMCA: H1, H2, L1, L2 co-expressed in CHO-3E7, protein A purified, LC-MS; competing light chain m12
[25] = target: D3H44 light chain Q38E_Q124E_Q160E_T180E; assay: SMCA: H1, H2, L1, L2 co-expressed in CHO-3E7, protein A purified, LC-MS; competing light chain m12; *** estimated change against a similar wild-type construct
[26] = target: tissue factor (TF) antigen (UniProt P13726); assay: SPR as for KD; reference: wild-type D3H44 Fab; batch C (+)
[27] = target: tissue factor (TF) antigen (UniProt P13726); assay: SPR as for KD; reference: wild-type D3H44 Fab; batch C (+); Set # read as 9787
[28] = target: tissue factor (TF) antigen (UniProt P13726); assay: SPR, ProteOn XPR36; His-tagged Fab captured on anti-penta-His, TF injected; 1:1 fit; batch C (+)
[29] = target: tissue factor (TF) antigen (UniProt P13726); assay: SPR, ProteOn XPR36; His-tagged Fab captured on anti-penta-His, TF injected; 1:1 fit; batch C (+); Set # read as 9787
[30] = target: D3H44 light chain F116C_Q124R_T178R; assay: SMCA, LC-MS of 4 co-expressed chains; competing light chain m32
[31] = target: D3H44 light chain F116C_Q124R_T178R; assay: SMCA, LC-MS; change vs wild-type bispecific; competing light chain m32
[32] = target: D3H44 light chain F116C_Q124R_T178R; assay: SMCA: 2 heavy + 2 light chains co-expressed, protein A, LC-MS; competing light chain m12
[33] = target: Trastuzumab light chain Q38E_Q124E_Q160E_T180E; assay: SMCA: H1, H2, L1, L2 co-expressed in CHO-3E7, protein A purified, LC-MS; competing light chain m12
[34] = target: Trastuzumab light chain Q38E_Q124E_Q160E_T180E; assay: SMCA: H1, H2, L1, L2 co-expressed in CHO-3E7, protein A purified, LC-MS; competing light chain m14
[35] = target: Trastuzumab light chain Q38E_Q124E_Q160E_T180E; assay: SMCA: H1, H2, L1, L2 co-expressed in CHO-3E7, protein A purified, LC-MS; competing light chain m12; against wild-type bispecific
[36] = target: Trastuzumab light chain Q38E_Q124E_Q160E_T180E; assay: SMCA: H1, H2, L1, L2 co-expressed in CHO-3E7, protein A purified, LC-MS; competing light chain m14; against wild-type bispecific
[37] = target: Cetuximab light chain Q38R_Q124R_Q160K_T178R; assay: SMCA: H1, H2, L1, L2 co-expressed in CHO-3E7, protein A purified, LC-MS; competing light chain m18
[38] = target: Cetuximab light chain Q38R_Q124R_Q160K_T178R; assay: SMCA: H1, H2, L1, L2 co-expressed in CHO-3E7, protein A purified, LC-MS; competing light chain m18; against wild-type bispecific
[39] = target: Cetuximab light chain Q38R_Q124R_Q160K_T178R; assay: SMCA: H1, H2, L1, L2 co-expressed in CHO-3E7, protein A purified, LC-MS; competing light chain m10; *** estimated change against a similar wild-type construct
[40] = target: D3H44 light chain Q124E_V133E; assay: SMCA, LC-MS of 4 co-expressed chains; competing light chain m26
[41] = target: D3H44 light chain Q124E_V133E; assay: SMCA, LC-MS of 4 co-expressed chains; competing light chain m42
[42] = target: D3H44 light chain Q124E_V133E; assay: SMCA, LC-MS; change vs wild-type bispecific; competing light chain m42
[43] = target: D3H44 light chain Q124E_V133E; assay: SMCA, LC-MS; estimated change vs similar wild type (***); competing light chain m26
[44] = target: D3H44 light chain Q124E_V133E; assay: SMCA: 2 heavy + 2 light chains co-expressed, protein A, LC-MS; competing light chain m45
[45] = target: D3H44 light chain Q124E_V133E; assay: SMCA: LC-MS of protein A purified product after co-expression of H1, H2, L1, L2 in CHO-3E7; competing light chain m52
[46] = target: Cetuximab light chain Q38E_Q124E_Q160E_T180E; assay: SMCA: H1, H2, L1, L2 co-expressed in CHO-3E7, protein A purified, LC-MS; competing light chain m14; against wild-type bispecific

- % H1L1 Pairing (over all H1 species) [1]: 100%
Substance: Trastuzumab heavy chain Q39E_L143E_K145T_Q179E (from UniProt P0DOX5 2-448)

- % H1L1 Pairing (over all H1 species) [2]: 100%
- % H1L1 Pairing (over all H1 species) [3]: 100%
- % H1L1 Pairing (over all H1 species) [4]: 100%
- Change in % H1L1 Pairing (over all H1 species) with respect to wild type [5]: 38.1%
- Change in % H1L1 Pairing (over all H1 species) with respect to wild type [6]: 52.5%
- Change in % H1L1 Pairing (over all H1 species) with respect to wild type [7]: 62.7%
- % H1L1 Pairing (over all H1 species) [8]: 100%
- % H1L1 Pairing (over all H1 species) [9]: 100%
Substance: D3H44 heavy chain Q179K (from UniProt P0DOX5 2-448)

- Change in % H2L2 Pairing (over all H2 species) with respect to wild type [10]: 1.7%
- Change in % H2L2 Pairing (over all H2 species) with respect to wild type [11]: 0%
Substance: Cetuximab heavy chain Q179K

- Kd [12]: 0.3 nM
- change in median KD compared to wild type, -(log(KD design)-log(KD wt)) [13]: -0.28
- Kd [14]: 0.3 nM
- change in median KD compared to wild type, -(log(KD design)-log(KD wt)) [15]: -0.28
Substance: D3H44 Fab heterodimer (H1L1) of LCCA Sets # 9683, 9684: H1 L143E_K145T_Q179E, L1 T178R

- Change in % H2L2 Pairing (over all H2 species) with respect to wild type [16]: 0%
- Change in % H2L2 Pairing (over all H2 species) with respect to wild type [17]: 3%
Substance: Cetuximab heavy chain A139C_L143E_K145T_Q179E

- % H1L1 Pairing (over all H1 species) [18]: 100%
- % H1L1 Pairing (over all H1 species) [19]: 100%
- % H1L1 Pairing (over all H1 species) [20]: 86.6%
- Change in % H1L1 Pairing (over all H1 species) with respect to wild type [21]: 38.1%
- Change in % H1L1 Pairing (over all H1 species) with respect to wild type [22]: 46%
Substance: D3H44 heavy chain Q39E_L143E_K145T_Q179E (from UniProt P0DOX5 2-448)

- % H1L1 Pairing (over all H1 species) [23]: 100%
- % H1L1 Pairing (over all H1 species) [24]: 100%
- Change in % H1L1 Pairing (over all H1 species) with respect to wild type [25]: 43.3%
Substance: D3H44 heavy chain Q39R_H172R_Q179K (from UniProt P0DOX5 2-448)

- change in median KD compared to wild type, -(log(KD design)-log(KD wt)) [26]: 0.16
- change in median KD compared to wild type, -(log(KD design)-log(KD wt)) [27]: 0.16
- Kd [28]: 0.11 nM
- Kd [29]: 0.11 nM
Substance: D3H44 Fab heterodimer, H1L1 of LCCA Sets # 9794, 9796, 9797, 9792, 9789 and 9787 (H1 Q179K; L1 Q124E_T180E)

- % H1L1 Pairing (over all H1 species) [30]: 100%
- Change in % H1L1 Pairing (over all H1 species) with respect to wild type [31]: 38.1%
- % H1L1 Pairing (over all H1 species) [32]: 100%
Substance: D3H44 heavy chain A139C_L143E_K145T_Q179E (from UniProt P0DOX5 2-448)

- % H1L1 Pairing (over all H1 species) [33]: 100%
- % H2L2 Pairing (over all H2 species) [34]: 100%
- Change in % H1L1 Pairing (over all H1 species) with respect to wild type [35]: 6%
- Change in % H2L2 Pairing (over all H2 species) with respect to wild type [36]: 7%
Substance: Trastuzumab heavy chain Q39R_H172R_Q179K (from UniProt P0DOX5 2-448)

- % H2L2 Pairing (over all H2 species) [37]: 52.3%
- Change in % H2L2 Pairing (over all H2 species) with respect to wild type [38]: 22.7%
- Change in % H2L2 Pairing (over all H2 species) with respect to wild type [39]: 1.6%
Substance: Cetuximab heavy chain Q39E_L143E_K145T_Q179E

- % H1L1 Pairing (over all H1 species) [40]: 100%
- % H1L1 Pairing (over all H1 species) [41]: 97.1%
- Change in % H1L1 Pairing (over all H1 species) with respect to wild type [42]: 59.8%
- Change in % H1L1 Pairing (over all H1 species) with respect to wild type [43]: 43.3%
- % H1L1 Pairing (over all H1 species) [44]: 100%
- % H1L1 Pairing (over all H1 species) [45]: 100%
Substance: D3H44 heavy chain L143R (from UniProt P0DOX5 2-448)

- Change in % H2L2 Pairing (over all H2 species) with respect to wild type [46]: 0.6%
Substance: Cetuximab heavy chain Q39R_H172R_Q179K
